Laboratory results: patent US20210363269A1 (ALX ONCOLOGY, published 2021)

T1: cynomolgus SIRP-α (cynomolgus monkey, UniProt Q5TFQ8 30-148 (human entry), limits assumed)
T1 construct: also called cyno1
T1 chain: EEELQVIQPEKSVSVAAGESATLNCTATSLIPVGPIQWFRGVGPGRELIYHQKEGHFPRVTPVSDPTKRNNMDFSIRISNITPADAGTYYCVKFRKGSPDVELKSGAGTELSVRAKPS

T2: mouse 129 SIRP-α (mouse (129 strain), UniProt P97797 32-150)
T2 construct: also called m129
T2 chain: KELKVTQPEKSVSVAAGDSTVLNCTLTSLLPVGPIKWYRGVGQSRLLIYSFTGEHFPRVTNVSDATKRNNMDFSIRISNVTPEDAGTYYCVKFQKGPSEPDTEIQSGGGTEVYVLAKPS

T3: BALBc mouse SIRP-α (mouse (BALB/c strain))
T3 chain: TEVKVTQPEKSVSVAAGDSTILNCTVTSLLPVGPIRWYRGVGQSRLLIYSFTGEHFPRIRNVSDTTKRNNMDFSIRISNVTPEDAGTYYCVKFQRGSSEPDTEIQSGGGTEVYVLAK

B1: antibody 122 (antibody, V domains shown)
VH: VQLVESGGGVVRPGESLRLSCAASGFRFSNFAMTWVRQAPGEGLEWVSTIGSGDTYYADSVKGRFTISRDNSKNTLYLQMNSLRAEDTAVYYCAKDSTVSWSGDFFDYWGLGTLVTVSS
VL: EIVLTQSPATLSVSPGERATFSCRASQNVKNDLAWYQQRPGQAPRLLIYAARIRETGIPERFSGSGSGTEFTLTITSLQSEDFAVYYCQQYYDWPPFTFGGGTKVEIK
notes: also called S122
B2: antibody 21 (antibody, V domains shown)
VH: DVQLVESGGGVVRPGESLRLSCAASGFTFSSNAMSWVRQAPGKGLEWLAGISAGGSDTYYPASVKGRFTISRDNSKNTLYLQMNTLTAEDTAVYYCARETWNHLFDYWGLGTLVTVSS
VL: ALTQPASVSANPGETVKIACSGGDYYSYYYGWYQQKAPGSALVTVIYSDDKRPSDIPSRFSGSASGSTATLTITGVRAEDEAVYYCGGYDYSTYANAFGAGTTLTVL
notes: also called AB21; S21
B3: antibody 25 (antibody, V domains shown)
VH: DVQLVESGGGVVRPGESLRLSCEASGFTFSSNAMSWVRQAPGKGLEWVAGISSGSDTYYGDSVKGRLTISRDNSKNILYLQMNSLTAEDTAVYYCARETWNHLFDYWGLGTLVTVSS
VL: ALTQPASVSANPGETVEITCSGGSYSSYYYAWYQQKSPGSAPVTLIYSDDKRPSNIPSRFSGSASGSTATLTITGVRAEDEAVYFCGGYDQSSYTNPFGAGTTLTVL
notes: also called AB25; S25
B4: antibody 66 (antibody, V domains shown)
VH: DVQLVESGGGVVRPGESLRLSCAASGFTFSSYAMSWVRQAPGKGLEWLAGISAGGSDTYYIDSVKGRFTISRDNPKNSLYLQMSSLTAEDTAVYYCARETWNHLFDYWGLGTLVTVSS
VL: ALTQPASVSANPGETVKITCSGGDYYSTYYAWYQQKSPGSAPVTVIHSDDKRPSDIPSRFSGSASGSAATLIITGVRVEDEAVYYCGGYDGRTYINTFGAGTTLTVL
notes: also called AB66; S66
B5: antibody 137 (antibody, V domains shown)
VH: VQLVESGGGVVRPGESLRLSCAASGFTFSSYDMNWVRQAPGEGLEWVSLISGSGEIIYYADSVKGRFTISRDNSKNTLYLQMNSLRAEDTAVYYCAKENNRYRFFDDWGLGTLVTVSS
VL: ETVLTQSPGTLTLSPGERATLTCRASQSVYTYLAWYQEKPGQAPRLLIYGASSRATGIPDRFSGSGSGTVFTLTISSLQSEDFAVYYCQQYYDRPPLTFGGGTKVEIK
notes: also called S137
B6: antibody 115 (antibody, V domains shown)
VH: DVQLVESGGGVVRPGESLRLSCAASGFSFSSYAMNWVRQAPGEGLEWVSRINSGGGGTDYAESVKGRFTISRDNSENTLYLQMNSLRAEDTAVYYCAKQYDWNSFFDYWGLGALVTVSS
VL: ETVLTQSPATLSVSPGERATLSCRASQTVGSKLAWHQQKPGQAPRLLIYDATNRATGISDRFSGSGSGTDFTLTISSLQTEDSAVYYCQQYYYWPPYRFGGGTKVEIK
notes: also called S115
B7: antibody 117 (antibody, V domains shown)
VH: VQLVESGGGVVRPGESLRLSCAASGFSFSSYAMNWVRQAPGEGLEWVSRINSGGGGTDYAESVKGRFTISRDNSENTLYLQMNSLRAEDTAVYYCAKQYDWNGFFDYWGLGALVTVSS
VL: ETVLTQSPATLSVSPGERATLSCRASQTVGSKLAWHQQKPGQAPRLLIYDATNRATGIPDRFSGSGSGTDFTLTISSLQTEDSAVYYCQQYYYWPPYRFGGGTKVEIK
notes: also called S117
B8: antibody 116 (antibody, V domains shown)
VH: VQLVESGGGVVRPGESLRLSCAASGFSFSSYAMNWVRQAPGEGLEWVSRINSGGGGTDYAESVKGRFTISRDNSENTLYLQMNSLRAEDTAVYYCAKQYDWNSFFDYWGLGALVTVSS
VL: ETVLTQSPATLSVSPGERATLSCRASQTVGSKLAWHQQKPGQAPRLLIYDATNRATGISDRFSGSRSGTDFTLTISSLQTEDSAVYYCQQYYYWPPYRFGGGTKVEIK
notes: also called S116
B9: antibody 118 (antibody, V domains shown)
VH: VQLVESGGGVVRPGESLRLSCAASGFSFSSYAMNWVRQAPGEGLEWVSRINSGGGGTDYAESVKGRFTISRDNSENTLYLQMNSLRAEDTAVYYCAKQYDWNGFFDYWGLGALVTVSS
VL: ETVLTQSPATLSVSPGERATLSCRASQTVGSKLAWHQQKPGQAPRLLIYDASRRATGIPDRFSGSGSGTDFTLTISSLQTEDSAVYYCQQYYYWPPYRFGGGTKVEIK
notes: also called S118
B10: antibody 173 (antibody, V domains shown)
VH: DVQLVESGGGVVRPGESLRLSCAASGFAFSDHDMSWVRQGPGEGLEWVAGISLRGGVTWYADSVKGRFTISRDNSKNTLYLRLFSLRTEDTAIYYCARESWNTFFDYWGLGTLVTVSS
VL: EIVLTQSPGTLSLSPGETATLSCRASQNVRSNLAWYQQKPGQAPRLLIYDASSRATGIPDRFSGSGSGTDFTLTISSLQSEDFAVYYCQQYGNGPPLTFGGGTKVEIK
notes: also called S173
B11: antibody 174 (antibody, V domains shown)
VH: DVQLVESGGGVVRPGESLRLSCAASGFTFSDHDMSWVRQGPGEGLEWVAGISLRGGVTWYADSVKGRFTISRDNSKNTLYLRLFSLRTEDTAIYYCARESWNTFFDYWGLGTLVTVSS
VL: EIVLTQSPGTLSLSPGETATLSCRASQNVRSNLAWYQQKPGQAPRLLIYDASSRATGIPDRFSGSGSGTDFTLTISSLQSEDFAVYYCQQYGNGPPLTFGGGTKVEIK
notes: also called S174
B12: antibody 209 (antibody, V domains shown)
VH: DVQLVESGGAVVRPGESLRLSCKASGFTFTNFAMSWVRQAPGEGLEWVSGISGSDDTTYYADSVKGRFTISRDNSESTLYLQMNSLRAEDTAVYYCVKDSTVSWNTFFDYWGLGTLVTVSS
VL: ALTQPASVSANLGGTVKITCSGGYGSDDGSSSYYGWYQQKSPGSAPVILIYWDDKRPSDIPSRFSGSTSGSTTTLTITGVQAEDEAVYFCGTYDTSSGAIFGAGTTLTVL
notes: also called S209
B13: antibody 149 (antibody, V domains shown)
VH: DVQLVESGGGVVRPGESLRLSCAASGFTFSNFAMNWVRQAPGEGLEWVSLISVTATTYYADSVKGRFTISRDNSKNTLYLQMNSLRAEDTAVYYCAKVTWNNLFDYWGLGTLVTVSS
VL: EIVLTQSPGTLSLSPGERATLSCRASQPIDSYLAWYQQKPGQAPRLLIYNTVTRATGIPDRFSGSGSGTDFTLTINRLEPEDFAVYYCQHQYDWPPYIFGGGTKVEIK
notes: also called S149
B14: antibody 161 (antibody, V domains shown)
VH: DVQLVESGGGVVRPGESLRLSCAASGFTFSNFAMTWVRQAPGKGPEWVSLVSVTATTYYADSVKGRFTISRDNSKSTLYLQMNSLRAEDTAVYYCAKITWNNLFDYWGLGTLVTVSS
VL: EIVLTQSPGTLSLSPGERATLSCRASQTVGSKLAWYQQKPGQAPRLLIYDSSSRASGIPDRFSGSGSGTDFTLTISSLQSEDSAVYYCQQHNDWPPYTFGGGTKVEIK
notes: also called S161
B15: antibody 45 (antibody, V domains shown)
VH: AVTLDESGGGLQTPGGALSLVCKASGFTFSSYAMGWVRQAPGKGLEWVAGIDDDGSTANYGPAVKGRATISRDNGQSTVRLQLNNPRAEDSGTYFCAKASVTGWSAHISGRLDTWGHGTEVIVSS
VL: ALTQPASVSANPGETVKITCSGGGIYYYGWYQQKSPGSAPVTLIYENDKRPSDIPSRFSGSTSGSTNTFTITGVQAEDEAVYYCGGYDSNTTSGIFGAGTTLTVL
notes: also called S45; AB45

What was measured:
human SIRP-α v1 [1] = target: T4, human SIRP-α v1 (human, UniProt P78324 31-149); test: SPR
T4 construct: also called Human v1; Human V1
T4 sequence (P78324 31-149 limits assumed): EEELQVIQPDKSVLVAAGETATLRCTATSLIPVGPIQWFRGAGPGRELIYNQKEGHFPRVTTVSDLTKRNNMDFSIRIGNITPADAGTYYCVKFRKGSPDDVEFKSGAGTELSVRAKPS
Summary of the method: (§1)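 KD values were derived as kd/ka from apparent rate constants obtained by globally fitting double-referenced data to a simple Langmuir model. The data came from a ProteOn XPR36 biosensor run at 25° C in PBS pH 7.4 with 0.01% Tween-20. There, purified antibodies sat on a GLC chip by amine coupling or on an NLC chip by biotinylated Protein A capture, and SIRP analytes were injected in one-shot kinetic mode at nominal concentrations set from A280 absorbance.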

human SIRP-α v2 [2] = target: T5, human SIRP-α v2 (human); test: SPR
T5 construct: also called Human v2; Human V2
T5 sequence (chain, as listed by the source limits assumed): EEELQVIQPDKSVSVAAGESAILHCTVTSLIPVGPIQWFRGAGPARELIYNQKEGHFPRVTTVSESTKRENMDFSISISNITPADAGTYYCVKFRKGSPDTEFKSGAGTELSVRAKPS
Summary of the method: as §1

cynomolgus SIRP-α [3] = target: T1, cynomolgus SIRP-α; test: SPR Koff +/-
Summary of the method: as §1

human SIRPβ isoform 1 = target: T6, human SIRPβ isoform 1 (human, UniProt O00241 30-148); test: SPR Koff +/-
T6 construct: also called Beta; Human SIRPb
T6 sequence (O00241 30-148 limits assumed): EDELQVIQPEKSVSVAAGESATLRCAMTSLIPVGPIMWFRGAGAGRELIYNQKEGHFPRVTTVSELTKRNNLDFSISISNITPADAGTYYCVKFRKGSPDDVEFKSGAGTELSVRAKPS
Summary of the method: as §1

mouse 129 SIRP-α = target: T2, mouse 129 SIRP-α; test: SPR Koff +/-
Summary of the method: as §1

human SIRPγ isoform 1 [4] = target: T7, human SIRPγ isoform 1 (human, UniProt Q9P1W8 29-147); test: SPR Koff +/-
T7 construct: also called Gamma; Human SIRPg
T7 sequence (Q9P1W8 29-147 limits assumed): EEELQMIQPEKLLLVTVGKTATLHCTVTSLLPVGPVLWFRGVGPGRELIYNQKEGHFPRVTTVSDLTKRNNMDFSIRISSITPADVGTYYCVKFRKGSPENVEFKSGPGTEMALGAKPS
Summary of the method: as §1

cynomolgus SIRP-α [5] = target: T1, cynomolgus SIRP-α; test: SPR
Summary of the method: as §1

BALBc mouse SIRP-α = target: T3, BALBc mouse SIRP-α; test: SPR
Summary of the method: as §1

human SIRP-α v1 [6] = target: T4, human SIRP-α v1; test: SPR; remark: listed apart in the source
Summary of the method: as §1

human SIRP-α v2 [7] = target: T5, human SIRP-α v2; test: SPR; remark: listed apart in the source
Summary of the method: as §1

human SIRPγ isoform 1 [8] = target: T7, human SIRPγ isoform 1; test: SPR
Summary of the method: as §1

Row | Binder | Kd (human SIRP-α v1 [1]) | Kd (human SIRP-α v2 [2]) | binding result (cynomolgus SIRP-α [3]) | binding result (human SIRPβ isoform 1) | binding result (mouse 129 SIRP-α) | binding result (human SIRPγ isoform 1 [4]) | koff (cynomolgus SIRP-α [5]) | koff (BALBc mouse SIRP-α) | koff (human SIRP-α v1 [6]) | koff (human SIRP-α v2 [7]) | koff (human SIRPγ isoform 1 [8])
1 | B1 | 0.214 nM | 0.0778 nM | binds | binds | no binding | binds | – | – | – | – | –
2 | B2 | < 0.001 nM | < 0.001 nM | – | – | – | – | 0.00229 s⁻¹ | 0.00241 s⁻¹ | 0.000707 s⁻¹ | 0.00192 s⁻¹ | 0.000902 s⁻¹
3 | B3 | < 0.001 nM | < 0.001 nM | – | – | – | – | 0.000394 s⁻¹ | 0.00178 s⁻¹ | 0.000165 s⁻¹ | 0.000353 s⁻¹ | 0.000203 s⁻¹
4 | B4 | < 0.001 nM | – | – | – | – | – | 0.00269 s⁻¹ | 0.00346 s⁻¹ | 0.000949 s⁻¹ | 0.00281 s⁻¹ | 0.000997 s⁻¹
5 | B5 | 0.774 nM | 3.14 nM | binds | binds | binds | – | – | – | – | – | –
6 | B6 | 0.0177 nM | 0.015 nM | binds | binds | no binding | binds | – | – | – | – | –
7 | B7 | 0.0312 nM | – | binds | binds | no binding | binds | – | – | – | – | –
8 | B8 | 0.11 nM | 0.299 nM | binds | binds | no binding | binds | – | – | – | – | –
9 | B9 | 0.0403 nM | – | binds | binds | no binding | binds | – | – | – | – | –
10 | B10 | 0.937 nM | 9.28 nM | no binding | no binding | no binding | no binding | – | – | – | – | –
11 | B11 | – | – | no binding | no binding | no binding | no binding | – | – | – | – | –
12 | B12 | 0.171 nM | 5.01 nM | no binding | – | – | no binding | – | – | – | – | –
13 | B13 | 0.873 nM | 0.238 nM | – | – | no binding | no binding | – | – | – | – | –
14 | B14 | 1.03 nM | 0.127 nM | – | – | no binding | no binding | – | – | – | – | –
15 | B15 | – | – | no binding | – | – | – | – | – | – | – | –
